49 sequences from the supplement of paper PMC9233669 can be followed below.

Fewer inactive variants are shown than the library holds.

Data set [1] relates to biotinyl-Phe-oxazolone. Kind of data set: self-aminoacylation, catalytic enhancement (BFO) (fold over background); higher = more active; k-Seq, kA / k0A0; sequences stand for … in GGGAAUGGAUCCACAUCUACGAAUUC…UUCACUGCAGACUUGACGAAGCUG
Summed up: (§1)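 Each biotinyl-aminoacyl-oxazolone, at 2–1250 μM, was incubated with mutagenized RNA pools (0.43 μM) carrying a 21-nt variable region. The 50 μL reactions contained HEPES/NaCl/KCl/MgCl2/CaCl2 buffer with 5% acetonitrile at pH 6.9–7.0 and ran for 90 minutes at room temperature. After streptavidin capture, RNA was measured by qPCR in triplicate and by Illumina sequencing, and catalytic enhancement was calculated as median kA over the uncatalyzed rate from a pseudo-first-order fit of per-sequence fraction reacted.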

In data set [2] the test system is biotinyl-Leu-oxazolone. Kind of data set: self-aminoacylation, catalytic enhancement (BLO) (fold over background); higher = more active; k-Seq, kA / k0A0; sequences stand for … in GGGAAUGGAUCCACAUCUACGAAUUC…UUCACUGCAGACUUGACGAAGCUG
The method in brief: as §1

Data set [3] deals with biotinyl-Trp-oxazolone. Kind of data set: self-aminoacylation, catalytic enhancement (BWO) (fold over background); higher = more active; k-Seq, kA / k0A0; sequences stand for … in GGGAAUGGAUCCACAUCUACGAAUUC…UUCACUGCAGACUUGACGAAGCUG
Summed up: as §1

Turning to “CCUCGCUUCAAGCAAUCGGUC [Fam1B.1 aminoacylation ribozyme variant]”, the figures for the self-aminoacylation in data set [1], in data set [2] and in data set [3] were 81.2, 2.24 and 36, respectively.

In the case of “CCAUGCUUCAAGCAAUCGGUC [Fam1B.1 aminoacylation ribozyme variant]”, the results for the self-aminoacylation in data set [1], in data set [2] and in data set [3] were 76.2, 2.66 and 39, respectively.

For “CCACACUUCAAGCAAUCGGCU [Fam1B.1 aminoacylation ribozyme variant]”, the self-aminoacylation in data set [2] turned out to be 2.08; in data set [3], 2.2.

Consider “AUUAACCUAGGACAUCGGGUG [Fam2.2 aminoacylation ribozyme variant]”, for which the self-aminoacylation in data set [1] is 14.2; in data set [2] it was 3.2; in data set [3], 2.82.

Consider “CCCCACUUCAAGCAAUCGGUA [Fam1B.1 aminoacylation ribozyme variant]”, for which the self-aminoacylation came out at 11.8 in data set [1], 2.71 in data set [2] and 3.44 in data set [3].

On to “CCCCUCUUCAAGCAAUCGGUC [Fam1B.1 aminoacylation ribozyme variant]”, for which the self-aminoacylation in data set [1] worked out at 49.1; in data set [2], 2.09; in data set [3], 31.2.

On to “GUUCACCUAGGUCAUAGGGUG [Fam2.2 aminoacylation ribozyme variant]”, for which the self-aminoacylation in data set [1] was determined as 2.11; in data set [2], 2.08; in data set [3], 2.22.

Consider “AUUCACCCAGGUCAUAGGGUG [Fam2.2 aminoacylation ribozyme variant]”, for which the self-aminoacylation is 7.85 in data set [1], 2.46 in data set [2] and 2.08 in data set [3].

On to “CUACUUCAAUCAAUCGGCCUG [Fam1A.1 aminoacylation ribozyme variant]”, for which the self-aminoacylation in data set [1] worked out at 34.9; in data set [2], 2.56; in data set [3], 30.3.

Consider “AAGUUUGCAAAUAGUCGCGAG [Fam3.1 aminoacylation ribozyme variant]”, for which the self-aminoacylation in data set [1] turned out to be 2.69; in data set [3], 3.06.

With “AAGUUAGCUAAUAGGCGCAAG [Fam3.1 aminoacylation ribozyme variant]”, the values for the self-aminoacylation in data set [1] and in data set [3] were 2.32 and 2.47, respectively.

“CAACUUCAAAGAAUCGGUCUG [Fam1A.1 aminoacylation ribozyme variant]”: the self-aminoacylation worked out at 7.1 in data set [1] and 7.86 in data set [3].

Consider “AUUCAGCUAGGUCAUCGGGUC [Fam2.2 aminoacylation ribozyme variant]”, for which the figures for the self-aminoacylation in data set [1] and in data set [3] were 13.5 and 3.24, respectively.

For the sequence “GUGUUUGCUAAUAGUCGCAAG [Fam3.1 aminoacylation ribozyme variant]”, the self-aminoacylation in data set [1] is 5.9; in data set [3] it was 4.15.

For “AAGUUGGCUAAUAGUCGCAAG [Fam3.1 aminoacylation ribozyme variant]”, the self-aminoacylation in data set [1] was 4.46; in data set [3], 2.29.

As for “CCACGCUUCAAGUAAUCGGUC [Fam1B.1 aminoacylation ribozyme variant]”, the figures for the self-aminoacylation in data set [1] and in data set [3] were 18.1 and 12.9, respectively.

With “AUUCACCCAGGUCGUCGGGUG [Fam2.2 aminoacylation ribozyme variant]”, the self-aminoacylation in data set [1] was 9.93; in data set [2], 2.84.

On to “AUACUUCAAACAAUCGGCCUG [Fam1A.1 aminoacylation ribozyme variant]”, for which the self-aminoacylation in data set [1] is 20.7; in data set [2], 2.02; in data set [3], 15.5.

Regarding “CUCCUUCAAUCAAUCGGUCUG [Fam1A.1 aminoacylation ribozyme variant]”, the figures for the self-aminoacylation in data set [1] and in data set [3] were 24.6 and 18.4, respectively.

With “AUACUUCAAACAAUCGGUCGG [Fam1A.1 aminoacylation ribozyme variant]”, the self-aminoacylation in data set [1] worked out at 5.46; in data set [3], 4.83.

For the sequence “CGACUUCAAACAAUCGGUCCG [Fam1A.1 aminoacylation ribozyme variant]”, the self-aminoacylation worked out at 4.63 in data set [1] and 4.64 in data set [3].

For the sequence “AAGUUUGCUAAUUGUCGCAAA [Fam3.1 aminoacylation ribozyme variant]”, the self-aminoacylation in data set [1] stood at 8.83; in data set [3], 2.49.

With “CCAAACUUCAAGUAAUCGGUC [Fam1B.1 aminoacylation ribozyme variant]”, the self-aminoacylation in data set [1] was found to be 10.5; in data set [3], 7.85.

Turning to “AAGUUUGGUCAUAGUCGCAAG [Fam3.1 aminoacylation ribozyme variant]”, the results for the self-aminoacylation in data set [1] and in data set [3] were 2.71 and 2.16, respectively.

For “AAUGUUGCUAAUAGUCGCAAG [Fam3.1 aminoacylation ribozyme variant]”, the self-aminoacylation in data set [1] came to 2.37; in data set [3], 2.02.

With “AAGUUUGCUAAUAGUCUCAAG [Fam3.1 aminoacylation ribozyme variant]”, the self-aminoacylation turned out to be 15.4 in data set [1] and 4.26 in data set [3].

Turning to “UUACUUCAAUCAAUCGGUCUG [Fam1A.1 aminoacylation ribozyme variant]”, the self-aminoacylation in data set [1] amounted to 19.7; in data set [3] it was 15.

With “CUACUUCAAAAAAUCGGUAUG [Fam1A.1 aminoacylation ribozyme variant]”, the values for the self-aminoacylation in data set [1] and in data set [3] were 4.4 and 2.5, respectively.

Regarding “CUGCUUCAAAUAAUCGGUCUG [Fam1A.1 aminoacylation ribozyme variant]”, the self-aminoacylation in data set [1] is 23.7; in data set [3], 17.4.

On to “AAGUGUGCUAACAGUCGCAAG [Fam3.1 aminoacylation ribozyme variant]”, for which the self-aminoacylation in data set [1] is 12.8; in data set [3] it was 4.85.

In the case of “AAGUGUGCUAAAAGUCGCAAG [Fam3.1 aminoacylation ribozyme variant]”, the self-aminoacylation in data set [1] came to 10.1; in data set [3] it was 4.61.

As for “CUACUUCAACUAAUCGGUCUG [Fam1A.1 aminoacylation ribozyme variant]”, the self-aminoacylation in data set [1] was found to be 12.9; in data set [3], 8.63.

As to “AUACUUCAAAAAAUCGGUCUG [Fam1A.1 aminoacylation ribozyme variant]”, the values for the self-aminoacylation in data set [1] and in data set [3] were 4.26 and 3.25, respectively.

In the case of “CUACUUCAAACAAUCGGUCCC [Fam1A.1 aminoacylation ribozyme variant]”, the self-aminoacylation in data set [1] is 11.1; in data set [3], 6.63.

As for “CAACUUCAAACAAUCCGUCUG [Fam1A.1 aminoacylation ribozyme variant]”, the self-aminoacylation was 2.94 in data set [1] and 2.31 in data set [3].

Regarding “CAACACUUCAAGAAAUCGGUC [Fam1B.1 aminoacylation ribozyme variant]”, the figures for the self-aminoacylation in data set [1] and in data set [3] were 7.2 and 5.88, respectively.

For the sequence “UCACACUUCAAGUAAUCGGUC [Fam1B.1 aminoacylation ribozyme variant]”, the self-aminoacylation in data set [1] worked out at 12.7; in data set [3], 7.97.

In the case of “GCACACUCCAAGCAAUCGGUC [Fam1B.1 aminoacylation ribozyme variant]”, the self-aminoacylation in data set [1] was found to be 2.35; in data set [3], 2.53.

Regarding “AAGGUUGCUAAUAGUCGUAAG [Fam3.1 aminoacylation ribozyme variant]”, the self-aminoacylation was 13.7 in data set [1] and 4.23 in data set [3].

In the case of “CCUCACUUCAAGCAAUCGGGC [Fam1B.1 aminoacylation ribozyme variant]”, the self-aminoacylation amounted to 2.32 in data set [2] and 3.32 in data set [3].

Take “UUAUUUCAAACAAUCGGUCUG [Fam1A.1 aminoacylation ribozyme variant]”: the self-aminoacylation in data set [1] was 5.5; in data set [3] it was 3.27.

As to “CUACUUCAAACAAUCAGUCGG [Fam1A.1 aminoacylation ribozyme variant]”, the self-aminoacylation in data set [1] came to 11.2; in data set [3] it was 5.8.

As to “AUGUUUGCUAAUAGUCGUAAG [Fam3.1 aminoacylation ribozyme variant]”, the self-aminoacylation is 18.7 in data set [1] and 5.05 in data set [3].

For “CCACUCUUCAAGCAAUCGGUC [Fam1B.1 aminoacylation ribozyme variant]”, the values for the self-aminoacylation in data set [1] and in data set [3] were 32.1 and 15.1, respectively.

As for “CCACUUCAAACAAUCGGUAUG [Fam1A.1 aminoacylation ribozyme variant]”, the self-aminoacylation in data set [1] amounted to 21.3; in data set [3] it was 12.7.

As for “CCACACUUCAAGCCAUCGCUC [Fam1B.1 aminoacylation ribozyme variant]”, the self-aminoacylation in data set [2] was determined as 2.19; in data set [3] it was 2.72.

As for “UAGUUUCCUAAUAGUCGCAAG [Fam3.1 aminoacylation ribozyme variant]”, the self-aminoacylation was found to be 2.31 in data set [1] and 2.1 in data set [3].

Take “CUACGUCAAACAAUCGCUCUG [Fam1A.1 aminoacylation ribozyme variant]”: the self-aminoacylation in data set [1] came out at 3.08; in data set [2], 2.07.

As to “AUUCACCUAGGUCAUCGGCAG [Fam2.2 aminoacylation ribozyme variant]”, in data set [2], the self-aminoacylation came out at 2.03.
